Laboratory results reported in patent US20190314470A1 (UNITED STATES GOVERNMENT AS REPRESENTED BY THE DEPARTMENT …, published 2019).

Biological target: T1, K-RAS protein (recombinant, abcam) (UniProt P01116-2 1-188, limits assumed)
T1 construct: Bought recombinant protein used in solution in the far western; One partner was labelled with the cysteine-reactive dye NT-647
Assay: quantification of the anti-RAS far western of FIG. 2E; two VAMP3 preparations
Method: Far Western Blotting. […] The membrane was then washed in 5% milk in TBST and incubated with horseradish peroxidase (HRP)-conjugated secondary antibody for 1 hr at RT. The membrane was then developed using the SuperSignal West Dura reagent (ThermoFischer). Quantification was done using ImageJ. For loading controls, duplicate membranes were spotted and immediately stained with a Coomassie Stain Kit (Biorad).

B1: VAMP3 (recombinant, LSbiosciences / MyBiosource) (other, UniProt Q15836 1-77, looked up)
chain: MSTGPTAATGSNRRLQQTQNQVDEVVDIMRVNVDKVLERDQKLSELDDRADALQAGASQFETSAAKLKRKYWWKNCK
notes: Two commercial preparations were spotted in the far western; also called vesicle-associated membrane protein 3
binding result: no binding (tested: 2 µg spotted)
